Data published in the supplement of paper PMC10724198.
± gives the standard deviation of the averaged measurements.

Test system: Saccharomyces cerevisiae
Assay: protein stability index of tFT-peptide fusion (C-terminal peptide) (PSI (0-1 scale)); higher = more stable (slower turnover)
Conditions: genetic background: wild type; temperature: 30 C
Description: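 Multiplexed protein stability (MPS) profiling in S. cerevisiae. Random 12-aa peptides (tFT-X12 library) are fused to the C-terminus of a sfGFP-mCherry tandem fluorescent timer, after mCherry and a GGGS linker. Cells are FACS-sorted into 8 mCherry/sfGFP bins and deep-sequenced. The protein stability index (PSI) is the read-weighted bin average, scaled from 0 (unstable) to 1 (stable). Only peptides with >10 reads are reported; cells were grown at 30 °C in SC-His with glucose.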
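Note: PSI is a weighted mean of sequencing reads over stability bins, variants kept only with over 10 reads, mCherry proximal and sfGFP distal, peptide attached via GGGS linker.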

| Sequence | protein stability index |
| --- | --- |
| IRRTSENEEETW | 0.673 ± 0.043 |
| IRSLKTSPLMRG | 0.704 ± 0.043 |
| IRVATIQSTMYI | 0.643 ± 0.016 |
| IRWKEIIDKWSY | 0.844 ± 0.038 |
| ISCVLSTVGVGH | 0.663 ± 0.044 |
| ISHAGSVPDRSV | 0.701 ± 0.04 |
| ISIAATPHVSQP | 0.661 ± 0.054 |
| ISLTFNSNSKPM | 0.687 ± 0.053 |
| ISLTHAPKTGFY | 0.695 ± 0.008 |
| ISMASRAGILRG | 0.686 ± 0.049 |
| ISMSDFRLFAIW | 0.6646 ± 0.0047 |
| ISNPAVHNPAGG | 0.641 ± 0.017 |
| ISRLLVLCRDLT | 0.65 ± 0.033 |
| ISVSRLRMKDRN | 0.713 ± 0.22 |
| ISWLLSFLGVVF | 0.601 ± 0.046 |
| ITDCAFIPLTVD | 0.764 ± 0.095 |
| ITGGEKNKEESG | 0.698 ± 0.019 |
| ITIVIKQNVDKE | 0.564 ± 0.016 |
| ITPLVQRPSSLR | 0.689 ± 0.088 |
| ITRSEEAKWLCA | 0.685 ± 0.045 |
| ITSALRYLSAVG | 0.656 ± 0.022 |
| ITSITRFKVDSR | 0.628 ± 0.022 |
| ITTLRSLWVVGL | 0.609 ± 0.085 |
| IVCGMGDKGMHE | 0.698 ± 0.014 |
| IVGKMRRQKTKI | 0.685 ± 0.057 |

| Sequence | protein stability index |
| --- | --- |
| IVNDEHVHTYTR | 0.743 ± 0.013 |
| IVNNVKYKNRNR | 0.715 ± 0.071 |
| IVWCAINYLFRS | 0.63 ± 0.054 |
| IWCSCWPGNWET | 0.823 ± 0.12 |
| IWGLDGKSISID | 0.751 ± 0.061 |
| IWGSILGVEANV | 0.685 ± 0.039 |
| IWLHFKGSRSLP | 0.703 ± 0.16 |
| IYPPALLSSSFL | 0.709 ± 0.093 |
| IYSGIYCVGAKH | 0.666 ± 0.03 |
| KADVSIRYGINN | 0.714 ± 0.074 |
| KARIADRKMWGN | 0.684 ± 0.017 |
| KASSGRASGSMA | 0.673 ± 0.09 |
| KAWGGEGRDAWG | 0.702 ± 0.069 |
| KCCRRPPPAFRS | 0.725 ± 0.034 |
| KCLDSARSSVLP | 0.651 ± 0.043 |
| KCPSLVHSNSTG | 0.71 ± 0.016 |
| KCSLVLTVARSY | 0.609 ± 0.014 |
| KCVQESIIKMMI | 0.763 ± 0.15 |
| KDCHPVSRYVRC | 0.707 ± 0.01 |
| KDFGYKKKNRRY | 0.734 ± 0.032 |
| KDGGRGGLNWCV | 0.745 ± 0.095 |
| KDNMQFLHLYAS | 0.707 ± 0.075 |
| KDRVGYKEIITG | 0.695 ± 0.028 |
| KEERGINNKKGK | 0.691 ± 0.071 |
| KEGARGGEASRR | 0.669 ± 0.031 |

| Sequence | protein stability index |
| --- | --- |
| KEKKENKRKNTT | 0.699 ± 0.051 |
| KEKKLKIIQKGT | 0.578 ± 0.09 |
| KEKKQARVKKKK | 0.723 ± 0.022 |
| KEKRFTQKLIRA | 0.654 ± 0.095 |
| KENEKQRKSHKK | 0.687 ± 0.043 |
| KENIRPSESYKC | 0.668 ± 0.05 |
| KEQESKAISYPV | 0.718 ± 0.035 |
| KEQGEGKEKTDK | 0.682 ± 0.063 |
| KESLKDRTKINI | 0.692 ± 0.033 |
| KEWKSESTVLEV | 0.7468 ± 0.0054 |
| KFASNNMFTRYV | 0.745 ± 0.012 |
| KFMKEITIDGLT | 0.709 ± 0.055 |
| KFSFVVAVHAGL | 0.545 ± 0.024 |
| KFYIIKRLSGVE | 0.64 ± 0.029 |
| KGEGRNRRGVPR | 0.675 ± 0.019 |
| KGLKRNENGTMS | 0.638 ± 0.017 |
| KGQKIIKNKNPK | 0.644 ± 0.038 |
| KGRRQPSSESVM | 0.711 ± 0.014 |
| KGSLVLGSKCCR | 0.681 ± 0.047 |
| KGVGGSTSRGGE | 0.666 ± 0.047 |
| KHKKKRTRDHEE | 0.666 ± 0.012 |
| KHNRISEKHQKS | 0.643 ± 0.0095 |
| KHRSIRPYLKND | 0.72 ± 0.037 |
| KHSMGSFNNILN | 0.6674 ± 0.0032 |
| KIDKNHGILPNY | 0.679 ± 0.035 |

| Sequence | protein stability index |
| --- | --- |
| KIEAHKKYKKHQ | 0.726 ± 0.026 |
| KINAKIYGSEKG | 0.654 ± 0.015 |
| KIRKYTKGQIMQ | 0.687 ± 0.007 |
| KITEKLGSPKTF | 0.654 ± 0.086 |
| KKEKGKKEKEKR | 0.668 ± 0.056 |
| KKEKKIRKKTVT | 0.732 ± 0.028 |
| KKEQIKINIKGK | 0.693 ± 0.03 |
| KKGACTQILQSL | 0.789 ± 0.19 |
| KKGKGKTETIKT | 0.695 ± 0.03 |
| KKGRRERRITNE | 0.695 ± 0.013 |
| KKHNGHNHQNNF | 0.684 ± 0.019 |
| KKIDQAKETSLS | 0.68 ± 0.011 |
| KKIEKENKKEKF | 0.611 ± 0.056 |
| KKIRKGIGNKHI | 0.651 ± 0.017 |
| KKKEKDKKTNKP | 0.684 ± 0.057 |
| KKKEKKKKNKLK | 0.74 ± 0.019 |
| KKKEKKNIHSKT | 0.646 ± 0.029 |
| KKKFNNFIKIIH | 0.631 ± 0.027 |
| KKKGDAKNKKKQ | 0.714 ± 0.067 |
| KKKHKKKKKKKE | 0.676 ± 0.073 |
| KKKKEIKKKKKT | 0.697 ± 0.06 |
| KKKKHKAKGKIG | 0.695 ± 0.049 |
| KKKKKKDQKNKK | 0.734 ± 0.057 |
| KKKKKKKGIILD | 0.737 ± 0.097 |
| KKKKKKKKKPEK | 0.708 ± 0.022 |

| Sequence | protein stability index |
| --- | --- |
| KKKKKKKKRARY | 0.657 ± 0.0063 |
| KKKKKKKNKKRK | 0.683 ± 0.019 |
| KKKKKKKNRETK | 0.655 ± 0.042 |
| KKKKKKKTKKKK | 0.78 ± 0.034 |
| KKKKKKQEKNKK | 0.694 ± 0.042 |
| KKKKKKRQKNTK | 0.691 ± 0.03 |
| KKKKKSKIEKKD | 0.725 ± 0.077 |
| KKKKKSKKKTKT | 0.668 ± 0.0037 |
| KKKKKSKKQKKK | 0.733 ± 0.019 |
| KKKKKTKNIKKT | 0.794 ± 0.059 |
| KKKKQKIKKQRK | 0.63 ± 0.00095 |
| KKKKQKKKRKRE | 0.718 ± 0.028 |
| KKKKRKNNITKK | 0.74 ± 0.15 |
| KKKKTEKKKTKQ | 0.656 ± 0.035 |
| KKKKVKKQRISR | 0.713 ± 0.11 |
| KKKMINEKKKKD | 0.701 ± 0.025 |
| KKKNKNENKKPQ | 0.667 ± 0.021 |
| KKKNTRKTTNIK | 0.708 ± 0.026 |
| KKKQKKVSNKQT | 0.699 ± 0.044 |
| KKKRIRNEYKKR | 0.68 ± 0.0071 |
| KKKTSKVIIREG | 0.689 ± 0.0085 |
| KKKVAITPQQTR | 0.685 ± 0.23 |
| KKMKKASTAKEL | 0.678 ± 0.025 |
| KKNAHANKIGND | 0.639 ± 0.086 |
| KKNEKKNRKKKN | 0.71 ± 0.022 |

| Sequence | protein stability index |
| --- | --- |
| KKNKKNQKKKNK | 0.663 ± 0.0072 |
| KKNKLKDSIKNI | 0.663 ± 0.016 |
| KKNKRMKVREKK | 0.609 ± 0.034 |
| KKNLKTKKRQNI | 0.66 ± 0.01 |
| KKNNKKNNKKKQ | 0.678 ± 0.078 |
| KKNQKKNEKHIK | 0.689 ± 0.041 |
| KKQKKKKKRNRK | 0.654 ± 0.028 |
| KKRKKKEKKRKK | 0.773 ± 0.17 |
| KKRRTKKENNNI | 0.687 ± 0.0089 |
| KKSRLRNNPADC | 0.7 ± 0.031 |
| KKTKNKKRIIRT | 0.724 ± 0.051 |
| KKTLWRKITMQK | 0.7193 ± 0.0057 |
| KKTYQQKIEEVV | 0.782 ± 0.14 |
| KKVKMIKEIRRG | 0.745 ± 0.044 |
| KKVLKFTKKKKP | 0.599 ± 0.048 |
| KLGNVRGPSYSL | 0.709 ± 0.056 |
| KLGRIWNFTLSA | 0.6284 ± 0.001 |
| KLKKKKISNVEN | 0.612 ± 0.0081 |
| KLNMLLYNNQEK | 0.631 ± 0.039 |
| KLREYGGLPISC | 0.677 ± 0.0087 |
| KMKRSNADAVEP | 0.678 ± 0.03 |
| KNAAGERGGKEG | 0.644 ± 0.044 |
| KNCKEQRKTIQI | 0.713 ± 0.026 |
| KNDRKLIKRILK | 0.728 ± 0.093 |
| KNEKNERKIATQ | 0.682 ± 0.016 |

| Sequence | protein stability index |
| --- | --- |
| KNESIRKKKPKK | 0.734 ± 0.033 |
| KNGANREEYITK | 0.686 ± 0.028 |
| KNIERKKNTKIR | 0.714 ± 0.017 |
| KNIRKITHGIGN | 0.623 ± 0.072 |
| KNKKKKKRRTRK | 0.732 ± 0.067 |
| KNQLKKPINKSK | 0.734 ± 0.13 |
| KNRKSPSMNSKE | 0.716 ± 0.017 |
| KNTKKKNRKKKN | 0.7419 ± 0.0026 |
| KNTNQKKKKKNT | 0.718 ± 0.044 |
| KNVKETERKVTS | 0.565 ± 0.023 |
| KPKKKKKDEQTI | 0.672 ± 0.035 |
| KPPNRQCLYDAL | 0.721 ± 0.094 |
| KPVGLPGRIRLG | 0.751 ± 0.02 |
| KQKKKRKSRRKK | 0.6504 ± 0.0033 |
| KQKKTQKIYTMR | 0.728 ± 0.059 |
| KQKNKTNKKNTK | 0.661 ± 0.025 |
| KQLEKRKRIIEE | 0.7644 ± 0.0035 |
| KQLPVLSAEVLS | 0.648 ± 0.035 |
| KQNAHKKINKYE | 0.75 ± 0.02 |
| KQSNGEFNIATP | 0.648 ± 0.046 |
| KQTEKEPKKGES | 0.7123 ± 0.0028 |
| KRCHPVYVRGGG | 0.568 ± 0.013 |
| KRDFILFSASVD | 0.627 ± 0.051 |
| KRDVRRLYRKRV | 0.7052 ± 0.0068 |
| KRGKKNEESRRD | 0.68 ± 0.085 |

| Sequence | protein stability index |
| --- | --- |
| KRIVGIFINRKI | 0.586 ± 0.0096 |
| KRKEKKKEKRRK | 0.714 ± 0.022 |
| KRKKKKEQTKKK | 0.752 ± 0.11 |
| KRKKKRQKNKGK | 0.766 ± 0.13 |
| KRKKQERKREKK | 0.692 ± 0.05 |
| KRKKQKKNQQNR | 0.682 ± 0.019 |
| KRKRKKKSEKEE | 0.652 ± 0.025 |
| KRLKRKSNLERE | 0.69 ± 0.047 |
| KRMKNELDIGMK | 0.7049 ± 0.0032 |
| KRNIKKKKTNLR | 0.675 ± 0.087 |
| KRNKDFIYTYRL | 0.696 ± 0.013 |
| KRQWAGRDGEGR | 0.662 ± 0.0068 |
| KRRGECEGGRRG | 0.672 ± 0.044 |
| KRRKKTQESSKA | 0.726 ± 0.049 |
| KRSNKGAKKKGK | 0.672 ± 0.041 |
| KRTEHTHDRKIK | 0.721 ± 0.034 |
| KSILTRTVNSNQ | 0.6592 ± 0.0031 |
| KSKKDQKKNHKK | 0.712 ± 0.0076 |
| KSNRCVQSKRQQ | 0.686 ± 0.037 |
| KTERRKEENTGE | 0.665 ± 0.041 |
| KTGIQTEIRYKE | 0.63727 ± 0.00029 |
